Patent US20250026813A1

Target: SARS-CoV-2 spike trimer protein (wild type), in the envelope of lentiviral pseudovirus particles (SARS-CoV-2) (UniProt P0DTC2)
Experiment: cell-based or functional assay

4A8 (antibody)
Fold change relative to SAD S35 antibody: 5.44 fold
